Experimental data taken from patent US20210220450A1, “TREATMENT OF AN IOP CONDITION” (The Research Foundation for The State University of New York, priority 2013, published 2021).

B1: RAP: inhibitor of LRP1 (protein, UniProt P30533 35-357, looked up)
Alpha-2-macroglobulin …: YSREKNQPKPSPKRESGEEFRMEKLNQLWEKAQRLHLPPVRLAELHADLKIQERDELAWKKLKLDGLDEDGEKEARLIRNLNVILAKYGLDGKKDARQVTSNSLSGTQEDGLDDPRLEKLWHKAKTSGKFSGEELDKLWREFLHHKEKVHEYNVLLETLSRTEEIHENVISPSDLSDIKGSVLHSRHTELKEKLRSINQGLDRLRRVSHQGYSTEAEFEEPRVIDLWDLAQSANLTDKELEAFREELKHFEAKIEKHNHYQKQLEIAHEKLRHAESVGDGERVSRSREKHALLEGRTKELGYTVKKHLQDLSGRISRARHNEL
B2: NE-tPA: non-enzymatically active tPA, serine-478 replaced by alanine (Innovative Research) (protein)
chain: SYQVICRDEKTQMIYQQHQSWLRPVLRSNRVEYCWCNSGRAQCHSVPVKSCSEPRCFNGGTCQQALYFSDFVCQCPEGFAGKCCEIDTRATCYEDQGISYRGTWSTAESGAECTNWNSSALAQKPYSGRRPDAIRLGLGNHNYCRNPDRDSKPWCYVFKAGKYSSEFCSTPACSEGNSDCYFGNGSAYRGTHSLTESGASCLPWNSMILIGKVYTAQNPSAQALGLGKHNYCRNPDGDAKPWCHVLKNRRLTWEYCDVPSCSTCGLRQYSQPQFRIKGGLFADIASHPWQAAIFAKHRRSPGERFLCGGILISSCWILSAAHCFQERFPPHHLTVILGRTYRVVPGEEEQKFEVEKYIVHKEFDDDTYDNDIALLQLKSDSSRCAQESSVVRTVCLPPADLQLPDWTECELSGYGKHEALSPFYSERLKEAHVRLYPSSRCTAQHLLNRTVTDNMLCAGDTRSGGPQANLHDACQGDSGGPLVCLNDGRMTLVGIISWGLGCGQKDVPGVYTKVTNYLDWIRDNMRP

What was measured:
[1] = test system: MMP-2, MMP-9, MMP-13; assay: MMP expression in PA treated HTM cells (Examples 17, 18); assay type: cell-based
[2] = test system: Mmp-2, Mmp-9, Mmp-13, Plat; assay: Mmp and Plat expression in protein treated C57BL/6J eyes not exposed to steroids (Example 15); assay type: in vivo, mouse; conditions: C57BL/6J not exposed to steroids
[3] = test system: Mmp-2, Mmp-9, Mmp-13; assay: Mmp expression in TA and protein treated C57BL/6J eyes (Example 13); assay type: in vivo, mouse; conditions: vs BSA treated controls
[4] = test system: C57BL/6J mice; assay: Outflow facility in TA and protein treated C57BL/6J mouse eyes (Example 13); assay type: in vivo; conditions: TA five days before intravitreal protein (2 μl, 5 μg/μl); two days after injection
Protocol: C57BL/6J mice were divided into two groups:
1) Animals receiving bilateral steroid (TA) injection subconjunctivally five days prior to protein injection (FIG. 10b) and 2) Animals not receiving subconjunctival steroids (FIG. 10c).
(§1) 1) Animals that received unilateral intravitreal injection with 2 μl of tPA (5 μg/μl, Actilyse; Boehringer Ingelheim, Ingelheim am Rhein, Germany) while the contralateral eye received 2 μl of BSA (5 μg/μl; Gold Biotechnology, St Louis, Mo., USA), and 2) Animals that received unilateral intravitreal injections with 2 μl of non-enzymatically active tPA (NE-tPA/S478A-tPA) (5 μg/μl; Innovative Research, Novi, Mich., USA) while the contralateral eye received 2 μl of BSA. Animals were euthanized two days after intravitreal injection.
(§2) Outflow facility determination: Mouse eyes were enucleated immediately after euthanasia. Outflow facility was determined using a constant pressure method, as previously described. Pressure was raised in steps of 4 cmH2O, from 8 cmH2O (5.88 mmHg) to 32 cmH2O (23.54 mmHg) by increasing the height of a column of fluid of BSS. […] Flow was constantly measured via a microfluidic flow sensor (0.07-1.5 uL/min, MFS1; Elveflow, Paris, France). […] Any eyes that developed visible leaks during outflow facility determination, or that had pressure-flow correlations with R^2<0.9, were excluded from analysis but were used for RNA quantification.

[5] = test system: Mmp-2, Mmp-9, Mmp-13; assay: Mmp expression in Tg-MYOCY437H angle ring tissue (Example 19); assay type: in vivo, mouse; conditions: 2 days, vs BSA treated eyes
Protocol: Eyes were flash frozen in liquid nitrogen after outflow facility determination and subsequently dissected on ice to obtain the angle ring tissues containing the TM, as previously described (Kumar, Shah et al. 2013). Dissected TM tissues were immersed in RNAlater solution (Invitrogen, Waltham, Mass., USA) and then snap-frozen and stored at −80° C. until RNA extraction. Tissue collected was pooled (four eyes) and homogenized in TRIzol reagent for RNA isolation, per manufacturer's instructions (Life Technologies, Carlsbad, Calif., USA). RNA concentration was determined with a Nanodrop ND-1000 Spectrophotometer (Thermo Scientific, Wilmington, Del., USA). cDNA was synthesized by using High-Capacity cDNA Reverse Transcription Kit (Applied Biosystems, Waltham, Mass., USA) according to manufacturer's protocol. Quantitative real-time PCR (qRT-PCR) was performed by using Green-2-Go qPCR Mastermix-ROX (Bio Basic, Amherst, N.Y., USA) on a QuantStudio 6 Flex thermal cycler (Applied Biosystems, Carlsbad, Calif., USA). mRNA expression of Plat, Plau, Pai-1, Mmp-2, Mmp-9, and Mmp-13 in angle ring tissues was determined. Primers were designed by using Primer-BLAST (https://www.ncbi.nlm.nih.gov/tools/primer-blast/index.cgi?LINK_LOC=BlastHome; in the public domain); primer sequences are listed in Table 2. Primer specificity was confirmed by agarose gel electrophoresis and multiple-sized amplification products were absent on inspection of melting curves. Target mRNA expression values were normalized to the expression levels of Rps11 (ribosomal protein S11). The relative fold change was calculated by using the ΔΔCt method (Hu, Wang et al. 2015). Outliers identified via the Thompson Tau test were removed from analysis.

[6] = test system: Tg-MYOCY437H mice; assay: Outflow facility in Tg-MYOCY437H mouse eyes (Example 19); assay type: in vivo
Protocol: To investigate whether corticosteroids affect outflow facility in Tg-MYOCY437H mice, animals received bilateral injections (20 μl) with either triamcinolone acetonide (TA) (40 mg/ml, Kenalog-40; Bristol-Myers Squibb, NY, USA) suspension or phosphate-buffered saline (PBS) (Gibco, ThermoFisher Scientific, Waltham, Mass., USA) subconjunctivally using a 100 μL Hamilton syringe with a 26-gauge needle (Precision Glide, Becton Dickinson & CO, Franklin Lakes, N.J., USA). They were euthanized one week later for outflow facility measurement.
To investigate whether tPA can affect outflow facility in Tg-MYOCY437H mice, and determine whether tPA enzymatic action is necessary for such an effect, intravitreal injections were performed using a 10 μL Hamilton syringe with 36-gauge stainless steel needles (WPI Inc, Sarasota, Fla., USA). […] Animals were sacrificed either two or five days after intravitreal injections for outflow facility measurement. […]
Mouse eyes were enucleated immediately after euthanasia. Outflow facility was determined using a microfluidic flow sensor (0.07-1.5 uL/min, MFS1; Elveflow, Paris, France) and constant pressure method, as previously described (Hu, Barron et al. 2019). […] Any eyes that developed visible leaks or that had pressure-flow correlations with […] were excluded from analysis but were used for RNA quantification.

[7] = test system: PlatKO mice; assay: Outflow facility in protein treated PlatKO mouse eyes (Example 14); assay type: in vivo; conditions: intravitreal protein
Protocol: (§3) PlatKO and Mmp-9KO mice were also not given steroids prior to protein injections (FIG. 10c). Within each cohort, animals were divided into two groups:
as §1
as §2, with “BSS. Steady state was initially achieved after 10 minutes.” for “BSS.”

[8] = test system: Mmp-9KO mice; assay: Outflow facility in protein treated Mmp-9KO mouse eyes (Example 16); assay type: in vivo; conditions: intravitreal protein, p>0.05
Protocol: as §3, §1
as §2, with “BSS. Steady state was initially achieved after 10 minutes.” for “BSS.”

[9] = test system: Mmp-2, Mmp-9, Mmp-13; assay: Mmp expression in protein treated PlatKO eyes (Example 14); assay type: in vivo, mouse; conditions: vs BSA treated eyes
Protocol: Tissue collection and confirmation of transgene expression: After outflow facility determination in adenovirus treated mice, mCherry expression in the TM was determined in all AdPLAT and AdPLATNE injected eyes. The eyes were dissected on ice to isolate a rim of tissue containing the TM by removing most of the iris and ciliary body. […] After observation, dissected rims were immediately immersed in RNA stabilizing agent (RNAlater, Invitrogen by ThermoFisher Scientific, Waltham, Mass., USA) and frozen. […]
RNA isolation and quantitative real time PCR: Tissue collected was pooled (four eyes) and homogenized in TRIzol reagent (Life Technologies, Carlsbad, Calif., USA). […] RNA concentration was determined with a Nanodrop ND-1000 Spectrophotometer (ThermoFisher Scientific, Waltham, Mass., USA). cDNA was synthesized by using High-Capacity cDNA Reverse Transcription Kit (Applied Biosystems, Waltham, Mass., USA) according to manufacturer's protocol. Quantitative real-time PCR (qRT-PCR) was performed by using Green-2-Go qPCR Mastermix-ROX (BioBasic, Amherst, N.Y., USA) on a QuantStudio 6 Flex thermal cycler (Applied Biosystems, Carlsbad, Calif., USA).
mRNA expression of sheep PLAT and mouse Mmp-2, Mmp-9, and Mmp-13 in angle ring tissues was determined. […] The relative fold change was calculated by using the ΔΔCt method. […]

Row | Molecule | MMP-9 expression ([1]; added to PA+NE-tPA, vs PA+NE-tPA treated cells) | endogenous Plat expression [2] | gene expression changes in Mmp-2, Mmp-9 and Mmp-13 ([2]; vs BSA) | Mmp-2, Mmp-9 and Mmp-13 expression [3] | outflow facility, mean±standard deviation [4] | Mmp-2 expression [5] | Mmp-9 expression [5] | Mmp-13 expression [5] | improvement of outflow facility [6] [%] | increase in outflow facility compared to BSA treated eyes [7] [%] | outflow facility, mean±standard deviation ([7]; no steroid, two days) | MMP-2 expression ([1]; PA treated HTM cells, between treatments) | expression (FIG. 17C, MMP-9) ([1]; PA treated HTM cells, vs PA+BSA) | effect on outflow facility [8] | Mmp-2 expression [9] | Mmp-9 expression [9]
1 | B1 | significantly lower | – | – | – | – | – | – | – | – | – | – | – | – | – | – | –
2 | B2 | – | did not cause significant changes | not significantly different | significant upregulation | 114±40.3×10^−5 μl/min/mmHg | no significant difference | significantly higher | significantly higher | ~37 | 51 | 92±42×10^−5 μl/min/mmHg | not significantly different | significant upregulation | did not increase | not significantly different | significant upregulation
